Experimental data: article PMC8565326, “Structural dissection of sequence recognition and catalytic mechanism of human LINE-1 endonuclease”

Assays:
[1] = molecular target: T1, L1-EN D145A/Y226K (LINE-1 ORF2p endonuclease domain) (human, UniProt O00370 1-238, D145A;Y226K); test: X-ray crystallography; no Mg2+; 0.1 M MES pH 6.0, 0.2 M NaCl, 30% Jeffamine ED-2003; 2.8 A; Co-crystallization: protein 16-24 mg/ml in 300 mM NaCl, 15 mM HEPES pH 7.5, 2% glycerol, 1 mM TCEP, DNA:protein 1.2:1; crystallization pH 6.0 (dna17) or 4.5 (dna14); temperature not stated; conditions: protein: recombinant; tags: N-terminal 6xHis-SUMO, cleaved with Ulp1; single-nucleotide T/A overhangs at the ends
[2] = molecular target: T1, L1-EN D145A/Y226K (LINE-1 ORF2p …); test: X-ray crystallography; no Mg2+; 0.1 M sodium acetate pH 4.5, 0.2 M ammonium acetate, 15% PEG 4000; 2.8 A; Co-crystallization: protein 16-24 mg/ml in 300 mM NaCl, 15 mM HEPES pH 7.5, 2% glycerol, 1 mM TCEP, DNA:protein 1.2:1; crystallization pH 6.0 (dna17) or 4.5 (dna14); temperature not stated; conditions: protein: recombinant; tags: N-terminal 6xHis-SUMO, cleaved with Ulp1; single-nucleotide T/A overhangs at the ends

T1 sequence (O00370 1-238 D145A/Y226K): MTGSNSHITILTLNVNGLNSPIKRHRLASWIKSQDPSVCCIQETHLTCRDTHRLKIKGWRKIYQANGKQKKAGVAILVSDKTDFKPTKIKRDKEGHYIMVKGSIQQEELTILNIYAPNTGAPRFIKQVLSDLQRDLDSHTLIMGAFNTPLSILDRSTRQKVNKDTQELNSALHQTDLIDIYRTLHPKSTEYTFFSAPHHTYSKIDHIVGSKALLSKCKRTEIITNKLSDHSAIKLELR

B1: dna17 (dsDNA)
DNA 1: GCTCCTTTTTAAGGGCTA
DNA 2: AGCCCTTAAAAAGGAGCT
Does B1 bind [1]?
Result: binds

B2: dna14 (dsDNA)
DNA 1: GCTCCTTTTTAAGGA
DNA 2: CCTTAAAAAGGAGCT
Does B2 bind [2]?
Result: binds
